Results published in article PMC11287749, “Optical Aptamer-Based Cytokine Nanosensor Detects Macrophage Activation by Bacterial Toxins”.

Molecular target: IL-6 (human recombinant, Invitrogen) (Homo sapiens, UniProt P05231 30-212)
Assay: SWCNT NIR fluorescence; PBS, 5250 ng/mL IL-6, 3 h; p = 0.66; 0.5 mg/L SWCNT-ssDNA in 1x PBS (or 1x PBS + 10% FBS), 5250 ng/mL IL-6, 120 uL, up to 180 min; pH and temperature not stated in the material
Conditions: protein: commercial

Chain of IL-6 (human recombinant, Invitrogen) (P05231 30-212): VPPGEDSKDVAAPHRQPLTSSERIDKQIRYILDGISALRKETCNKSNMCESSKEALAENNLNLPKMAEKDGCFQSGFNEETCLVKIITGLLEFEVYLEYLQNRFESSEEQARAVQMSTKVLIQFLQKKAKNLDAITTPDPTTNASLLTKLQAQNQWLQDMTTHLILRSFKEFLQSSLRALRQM

## GTGTGTGTGTGTGTGTGTGTGTGTGTGTGT (ssDNA, noncovalently adsorbed on SWCNT) [(GT)15 control]
  binding result: no binding
